Patent US20120283168A1
Square brackets hold non-standard residues; d marks the D form. Oic = O=C(O)[C@@H]1C[C@@H]2CCCC[C@@H]2N1; Tic = O=C(O)[C@@H]1Cc2ccccc2CN1; Dab = NCC[C@H](N)C(=O)O; Ac4c = NC1(C(=O)O)CCC1; Aib = CC(C)(N)C(=O)O

What follows are substances tested against human CCR10 (human) (UniProt P46092) (assay: cell-based or functional assay).
human CCR10 (human), sequence (P46092 whole entry): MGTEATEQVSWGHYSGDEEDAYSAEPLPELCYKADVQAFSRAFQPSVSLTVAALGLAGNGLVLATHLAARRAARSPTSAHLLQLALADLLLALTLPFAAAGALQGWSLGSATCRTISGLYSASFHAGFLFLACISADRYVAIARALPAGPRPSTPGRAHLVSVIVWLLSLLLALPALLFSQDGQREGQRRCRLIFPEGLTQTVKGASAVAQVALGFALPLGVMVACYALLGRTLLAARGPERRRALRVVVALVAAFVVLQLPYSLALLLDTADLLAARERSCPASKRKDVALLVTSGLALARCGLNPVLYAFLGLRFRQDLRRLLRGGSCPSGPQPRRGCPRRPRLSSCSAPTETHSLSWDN

IC50 (nM) Calcium Flux Assay | IC50 (nM) Chemotaxis Assay | Substance
220 nM | 18.9 nM | cyclo(-Bbta-Cyp-Trp-Dab-^DPro-Oic-) (peptide)
181 nM | 5.3 nM | cyclo(-Phe(4CN)-Cyp-Trp-Dab-^DPro-Hyp(Bn)-) (peptide)
0.5 nM | 1.8 nM | cyclo(-Phe(4CN)-Cyp-Trp-Ser-^DPip-Hyp(Bn)-) (peptide)
24.2 nM | 5.3 nM | cyclo(-Trp-Cyp-Trp-Dab(MeO(CH2)2NHCO)-^DPro-Oic-) (peptide)
28 nM | 2.3 nM | cyclo(-Trp-Cyp-Trp-Lys(Ac)-^DPro-Oic-) (peptide)
44.3 nM | – | cyclo(-Trp-Cyp-Trp-Gln-^DPro-Oic-) (peptide)
333 nM | 3.1 nM | cyclo(-Trp-Chx-Trp-Dab-^DPro-Oic-) (peptide)
6.9 nM | 9.6 nM | cyclo(-Trp-Cyp-Trp-Ser-^DPip-Oic-) (peptide)
333 nM | 7 nM | cyclo(-Trp-Cyp-Trp-Lys((5R)OH)-^DPro-Oic-) (peptide)
30.3 nM | 4.8 nM | cyclo(-Trp-Cyp-Trp-Dab(Ac)-^DPro-Oic-) (peptide)
11.6 nM | 2.5 nM | cyclo(-Trp-Cyp-Trp-Dab-^DPro-Hyp(4BrBn)-) (peptide)
567 nM | 50.2 nM | cyclo(-Trp-Cyp-Trp-Dab(Dab)-^DPro-Oic-) (peptide)
58.1 nM | 13.4 nM | cyclo(-Phe(4CF3)-Cyp-Trp-Dab-^DPro-Oic-) (peptide)
134 nM | 19.6 nM | cyclo(-Trp-Cyp-Trp-Dab-^DPro-Thz-) (peptide)
602 nM | 208 nM | cyclo(-Trp-Cyp-Tyr(Ph)-Dab-^DPro-Oic-) (peptide)
22.6 nM | – | cyclo(-Phe(4CF3)-Cyp-Trp-Dab-^DPro-Hyp(4BrBn)-) (peptide)
52.5 nM | – | cyclo(-Trp(5OH)-Cyp-Trp-Arg-^DPro-Tic-) (peptide)
16.7 nM | 2.3 nM | cyclo(-Tyr(4MeOCOBn)-Cyp-Trp-Dab-^DPro-Oic-) (peptide)
5.3 nM | 0.6 nM | cyclo(-Phe(4CN)-Cyp-Trp-Ser-^DPro-Hyp(4BrBn)-) (peptide)
214 nM | 109 nM | cyclo(-Trp(5OH)-Cyp-Trp-Arg-^DPro-Thz(5,5Me2)-) (peptide)
8.8 nM | 12 nM | cyclo(-Trp-Cyp-Phe(4F)-Ser-^DPro-Oic-) (peptide)
12.6 nM | 35.4 nM | cyclo(-Trp-Cyp-Trp-Ser-^DPro-Hyp(Bn)-) (peptide)
353 nM | 1.7 nM | cyclo(W[Ac4c]W[Dab][dP][Oic])
283 nM | 30.3 nM | cyclo(-Trp-Cyp-Ala(2Quin)-Dab-^DPro-Oic-) (peptide)
80.3 nM | – | cyclo(-Phe(4CN)-Cyp-Trp-Ser-^DPro-Oic-) (peptide)

IC50 (nM) Calcium Flux Assay | IC50 (nM) Chemotaxis Assay | Substance
14.8 nM | 22 nM | cyclo(-Phe(4CF3)-Cyp-Trp-Dab-^DPip-Pro((4R)Ph)-) (peptide)
280 nM | 48 nM | cyclo(-Phe(4CN)-Cyp-Trp-Dab-^DPro-Oic-) (peptide)
49.5 nM | 8.8 nM | cyclo(-Trp-Cyp-Trp-Lys(Nic)-^DPro-Oic-) (peptide)
39.9 nM | – | cyclo(-Trp-Cyp-Phe(4Cl)-Dab-^DPro-Hyp(Bn)-) (peptide)
27.9 nM | 3.8 nM | cyclo(-Trp-Cyp-Trp-Dab-^DPro-Pro((4R)3CNBn)-) (peptide)
35.3 nM | – | cyclo(-Trp-Cyp-2Nal-Gln-^DPro-Oic-) (peptide)
3 nM | 11.1 nM | cyclo(-Trp-Cyp-Trp-Dab(morphCO)-^DPro-Oic-) (peptide)
70.5 nM | – | cyclo(-Trp-Cyp-2Nal-Dab-^DPip-Oic-) (peptide)
78.5 nM | – | cyclo(-Trp-Cyp-Trp-Arg-^DPro-Tic(7OH)-) (peptide)
53.9 nM | 5.3 nM | cyclo(-Trp-Cyp-Trp-Dab(MePpzCO)-^DPro-Oic-) (peptide)
260 nM | 60.1 nM | cyclo(-Trp-Cyp-Trp-Dab-^DPro-(4S)-Hyp(Bn)-) (peptide)
63.2 nM | 2.7 nM | cyclo(-Phe(4CF3)-Cyp-Trp-3Pal-^DPic-Oic-) (peptide)
150 nM | 184 nM | cyclo(-Trp-Cyp-Trp-Dab-^DPro-Hyp(CONHPh)-) (peptide)
6.3 nM | 5 nM | cyclo(-Trp(6Cl)-Cyp-Trp-Ser-^DPro-Oic-) (peptide)
226 nM | 94 nM | cyclo(W[Aib]WR[dP][Tic])
127 nM | 50.7 nM | cyclo(-Trp-Cyp-Trp-Dab-^DPro-Hyp(3CNBn)-) (peptide)
41.1 nM | 3.2 nM | cyclo(-Phe(3CF3)-Cyp-Trp-Dab-^DPro-Oic-) (peptide)
399 nM | 15.2 nM | cyclo(-Trp-Cyp-Trp-Dap((MeO(CH2)2)2)-^DPro-Oic-) (peptide)
516 nM | 13 nM | cyclo(-hTyr-Cyp-Trp-Dab-^DPro-Oic-) (peptide)
56.8 nM | 6.9 nM | cyclo(-Trp-Cyp-Trp-Dap(MeO(CH2)2)-^DPro-Oic-) (peptide)
15.8 nM | 9 nM | cyclo(-Trp-Cyp-Trp-Dab-^DPro-Pro((4R)4BrBn)-) (peptide)
43.2 nM | 9.7 nM | cyclo(-2Nal-Cyp-Trp-Dab-^DPip-Pip-) (peptide)
132 nM | – | cyclo(-Trp-Cyp-Ala(2Furyl)-Dab-^DPro-Oic-) (peptide)
70.6 nM | – | cyclo(-Trp-Cyp-Trp-Arg-^DPro-Thz-) (peptide)
11.6 nM | 1.2 nM | cyclo(-Trp-Cyp-Trp-alloThr-^DPro-Oic-) (peptide)
